The record followed here is patent publication US20170166631A1 (published 2017).

T1: HD21 (huntingtin exon 1 protein with 21 polyQ repeats after cleavage of the GST tag; aggregation reaction) (human, UniProt P42858 1-88)
T1 chain: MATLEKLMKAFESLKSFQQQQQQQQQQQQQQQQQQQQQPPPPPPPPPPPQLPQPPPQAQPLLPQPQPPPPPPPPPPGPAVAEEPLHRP

T2: HD49 (huntingtin exon 1 protein with 49 polyQ repeats after cleavage of the GST tag; aggregation reaction) (human, UniProt P42858 1-88)
T2 chain: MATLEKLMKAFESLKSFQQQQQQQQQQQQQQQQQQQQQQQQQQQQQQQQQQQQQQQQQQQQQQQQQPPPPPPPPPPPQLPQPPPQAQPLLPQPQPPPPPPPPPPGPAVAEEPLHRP

B1: NI-302.11H6 (antibody, V domains shown)
VH: EVQLVQSGAVMKKPGDSVRVSCRASTYSFSTYSFTWVRQVPGQGLEWMGWISAYNGHTNYVDSFQGRLTLTTDTSASTAYMELRSLRSDDTAIYYCAAVDTTYYYYGMDVWGQGTLVTVSS
VL: QTVVTQEPTFSVSPGGTVTLTCALRFGSVSSSYYPSWFQQTPGQAPRTLIYSTNTRSSGVPARFSGSILGNKAALTIAGAQANDEADYYCVLYMGSGIGVFGGGTKLTVL
B2: NI-302.71F6 (antibody, V domains shown)
VH: QVQLQQWGAGLLKPSETLSLTCAVYGGSLSGYYWSWIRQPPGKGLEWIGEVNHSGGTNLNSSLKSRVIISVDKSKKQFSLKLSSVTAADTAMYFCARGYSYDPKYYFDSWSQGTLVTVSS
VL: QSALTQPASVSGSPGQAITISCTGTSSDIGSYDFVSWYQQDPGKAPKVIIYGVNKRPSGVSNRFSGSKSGNTASLTISGLQADDEADYYCCSYAGSTTWVFGGGTKLTVL
B3: NI-302.3D8 (antibody, V domains shown)
VH: EVQLVQSGGGLVQPGGSLRLSCEASGFIFKTYAMSWVRQLPGRGLEWVSAISATGGSTFYAESVKGRLTISRDTAKNTVYLQMNNLRAEDTAMYYCAKGSTAVYLFDSWGQGTLVTVSS
VL: DIQMTQSPSSLSASVGDRVTLTCRASQDIRNFLAWIQQKPGKPPKSLIYAASTLQSGVPSRFSGSGSGTDFTLTISSLHPEDFATYYCQQFYNYPPTFGQGTKVEIK
B4: NI-302.7A8 (antibody, V domains shown)
VH: EVQLVESGGGSVQPGGSLRLSCVASGFIFRNSWMTWVRQDPGKGLEWVANIKEDGSRTYYVDSVKGRFTISRDNAKNSLYLQMNSLRAEDTAVYYCARGDYNSGIYYFPGDYWGQGTLVTVSS
VL: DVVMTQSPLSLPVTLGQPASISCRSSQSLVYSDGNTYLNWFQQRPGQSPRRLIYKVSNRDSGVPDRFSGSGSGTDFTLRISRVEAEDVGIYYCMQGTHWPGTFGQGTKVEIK
B5: NI-302.78H12 (antibody, V domains shown)
VH: QVQLQESGPGLVKPSETLSLTCLVSSYSISNGYYWGWIRQPPGKGLEWIGSIYHNGNTYYNPSLKSRVIISVDTSKNQFSLKLRSVTAADTAVYYCAMPSATYYYGSGTQFHAFDVWGQGTTVTVSS
VL: QSALTQPRSVSGSPGQSVTISCTGTSRDVGNYNYVSWYQQHPGEVPKLIIYDVSERPSGVPDRFSGSKSGNTASLTISGLQAEDEADYYCCSYAGSYTFEVFGGGTKLTVL
B6: NI-302.55D8 (antibody, V domains shown)
VH: QVQLVQSGSEVKKPGASVKVSCKASGYTFTDYYIHWVRQAPGQGLEWMGRINPNNGGTNYAQNFQGWVTMTRDTSISTAYMELSRLRSDDTAVYYCARVGGELLREGGYHYYMDVWGKGTTVTVSS
VL: QSVLTQPPSVSGAPGQRVTISCTGNSSNIGAGYDVHWYQQLPGTAPKLLIFDNTNRPSGVPDRFSGSKSGTSASLAITGLQAEDEANYHCQSYDNSLSGSWVFGGGTKLTVL
B7: NI-302.44D7 (antibody, V domains shown)
VH: EVQLVQSGGGLVQPGGSLRLSCAASGFTFSSYAMSWVRQAPGKGLEWVSGIGYSDTSTYYADSVKGRFTVSRDISKNTLYLQMNSLRAEDTAVYYCAKGTRDYYGMDVWGQGTMVTVSS
VL: QTVVTQEPSFSVSPGGTVTLTCGLSSGSVSTSYYPSWYQQTPGRAPRTLIYSTNTRSSGVPDRFSGSILGNKAALTITGAQADDESDYYCVLFMGSGIGVFGGGTRLTVL
B8: NI-302.22H9 (antibody, V domains shown)
VH: EVQLVESGGGLVHPWGSLRVSCAASGFSVSNYAITWVRQAPGKGLEYISVIYRDGRTYYGDSVRGRFTISRDDSKNTIYLQMNSLRFEDTAVYYCARAHGQYYYGVDVWGQGTTVTVSS
VL: DVVMTQSPLSLSVSPGEPASISCRSSQSLLHSNGYNYLDWYRQKPGQSPQLLIYLNSNRASGVPDRFSGSGSGTEFTLTISRVEAEDVGVYYCMQSLQTFTFGGGTKVEIK
B9: NI-302.37C12 (antibody, V domains shown)
VH: EVQLVESGGGLVQPGGSLRLSCVASALTVTNSQMTWVRRAPGRGLEWVSVIYTSGSAYYADSVKGRFTISRDNSKNTVFLQMNSLRVEDTAVYYCAKGPSAYYYGLDLWGQGTTVTVSS
VL: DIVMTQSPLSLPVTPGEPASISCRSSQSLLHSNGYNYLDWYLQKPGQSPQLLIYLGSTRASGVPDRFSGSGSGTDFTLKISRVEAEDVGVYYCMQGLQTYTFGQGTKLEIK
B10: NI-302.46C9 (antibody, V domains shown)
VH: QVQLQESGPGLVKPSQTLSLTCTVSGASVSSGAYYWSWIRQPAGKRLEWIGRVYPTWSTNYNPSLESRVTISLDTSNNQFSLKLTSLTAADTAVYYCAREAPGDYDAAPLAYWGQGTLVTVSS
VL: DIQMTQSPSSLSASVGDRVTITCRASQYISHYLNWYRQKPGKAPQLVIYAASSLQSEVPSRFSGSGSGPEFTLTISSLQPEDFATYYCQQSYTTPRTFGQGTKLEIK

The first experiment concerns the target T3, GST-HttExon1Q21 (recombinant huntingtin exon 1 protein with 21 polyQ repeats fused to an N-terminal GST tag) (;human, UniProt P08515 1-218 = GST; P42858 1-88). As to the kind of experiment: ELISA. In general terms: ELISA stands for enzyme-linked immunosorbent assay.
What is called EC50 is the concentration at which the effect is half-maximal. Turning to B1, the EC50 came out at 0.24 nM.
For B2, the EC50 came to 3 nM.
Same read-out and setting: in the case of B3 it was 0.05 nM.

The target in a further experiment is T1, HD21 (huntingtin exon 1 protein with 21 …). Kind of experiment: ELISA.
With B1, the EC50 came to 1.22 nM.
In turn, B2 gave a concentration for a half-maximal effect (EC50) of 7.6 nM.
Molecule B3 gave a 50% effective concentration (EC50) of 0.02 nM.

The target in another experiment is T2, HD49 (huntingtin exon 1 protein with 49 …). As to the kind of experiment: ELISA.
Consider B1, for which the EC50 was found to be 0.16 nM.
Molecule B2 showed an EC50 of 4.4 nM.
The same measure, in the same setting: the figure for B3 is 0.03 nM.

A further experiment concerns the target T3, GST-HttExon1Q21 (recombinant huntingtin …). Kind of experiment: ELISA. The source holds these as a separate data set.
Take B4: the EC50 amounted to 0.2 nM.
As to B5, the EC50 was determined as 0.5 nM.
In the case of B6, the 50% effective concentration (EC50) is approximately 0.2 nM.

The next experiment addresses T1, HD21 (huntingtin exon 1 protein with 21 …). Kind of experiment: ELISA. The source holds these as a separate data set.
Molecule B4 had a half-maximal effective concentration (EC50) of 0.4 nM.
Turning to B5, it took 1.1 nM to reach a half-maximal effect (EC50).
As for B6, the EC50 was 1.2 nM.

In a further experiment the target is T2, HD49 (huntingtin exon 1 protein with 49 …). As to the kind of experiment: ELISA. This is another data set of the same source.
For the molecule B4, a half-maximal effect (EC50) was put at 1.5 nM.
For B5, the EC50 was determined as 1.6 nM.
The same measure, in the same setting: the figure for B6 is 1.7 nM.

A further experiment deals with T3, GST-HttExon1Q21 (recombinant huntingtin …). As to the kind of experiment: ELISA. The source holds these as a separate data set.
In the case of B7, the EC50 is 5.4 nM.
For B8, the concentration for a half-maximal effect (EC50) stood at 1.6 nM.
For the molecule B9, the EC50 came to 0.3 nM.

Another experiment has as its target T1, HD21 (huntingtin exon 1 protein with 21 …). Kind of experiment: ELISA. The source holds these as a separate data set.
With B7, it took 11 nM to reach a half-maximal effect (EC50).
In turn, B8 yielded a half-maximal effective concentration (EC50) of 11 nM.
For B9, the concentration for a half-maximal effect (EC50) turned out to be 2.5 nM.

For a further experiment, the target named is T2, HD49 (huntingtin exon 1 protein with 49 …). Kind of experiment: ELISA. This is another data set of the same source.
B7: the EC50 stood at 10 nM.
In turn, B8 had a half-maximal effective concentration (EC50) of 21 nM.
On the same count and under the same terms, in the case of B9 it was 4.9 nM.

For the next experiment, the target named is T3, GST-HttExon1Q21 (recombinant huntingtin …). Kind of experiment: ELISA. This is another data set of the same source.
With B10, the concentration for a half-maximal effect (EC50) was approximately 0.07 nM.

For the next experiment, the target named is T1, HD21 (huntingtin exon 1 protein with 21 …). As to the kind of experiment: ELISA. The source holds these as a separate data set.
As to B10, a half-maximal effect (EC50) was put at 0.3 nM.

The target in the next experiment is T2, HD49 (huntingtin exon 1 protein with 49 …). As to the kind of experiment: ELISA. This is another data set of the same source.
B10 came in with an EC50 of approximately 0.05 nM.

A further experiment addresses T3, GST-HttExon1Q21 (recombinant huntingtin …). Kind of experiment: ELISA. The source holds these as a separate data set.
In the case of B7, the EC50 is 5.4 nM.
The same measure, in the same setting: the figure for B4 is 0.2 nM; for B8 it is 1.6 nM.
For B1, the EC50 amounted to 0.2 nM.
For B2, the EC50 turned out to be 3 nM.
For the molecule B3, the EC50 came to 0.05 nM.
Turning to B9, the EC50 was found to be 0.33 nM.
Same read-out and setting: in the case of B5 it was 0.5 nM.
Still for that read-out and setting: in the case of B10 it was 0.07 nM.
The same measure, in the same setting: in the case of B6 it was 0.2 nM.

A further experiment deals with T1, HD21 (huntingtin exon 1 protein with 21 …). As to the kind of experiment: ELISA. This is another data set of the same source.
The molecule B7 came in with a concentration giving a half-maximal response (EC50) of 11 nM.
The same measure, in the same setting: the figure for B4 is 0.4 nM; for B8 it is 11 nM; for B1 it is 1.2 nM.
Still for that read-out and setting: the figure for B2 is 7.6 nM; for B3 it is 0.02 nM; for B9 it is 2.5 nM.
The same measure, in the same setting: the figure for B5 is 1.1 nM; for B10 it is 0.3 nM; for B6 it is 1.2 nM.

Another experiment deals with T2, HD49 (huntingtin exon 1 protein with 49 …). Kind of experiment: ELISA. This is another data set of the same source.
The molecule B7 had a concentration for a half-maximal effect (EC50) of 10 nM.
Same read-out and setting: the figure for B4 is 1.5 nM; for B8 it is 22 nM; for B1 it is 0.2 nM.
On to B2, for which the concentration for a half-maximal effect (EC50) amounted to 4.4 nM.
B3 had an EC50 of 0.03 nM.
On the same count and under the same terms, the figure for B9 is 4.9 nM.
With B5, the response was half-maximal at 1.6 nM (EC50).
Molecule B10 yielded a 50% effective concentration (EC50) of 0.05 nM.
For the molecule B6, the EC50 was found to be 1.7 nM.
